Test results reported in the supplement of paper PMC5998384.

Columns and labels:
HeLa Kyoto [1] = experiment: thermal stability score vs G1/S (z-score of summed log2 fold changes over temperatures); higher = more thermally stable than in G1/S
HeLa Kyoto [2] = experiment: solubility in G1/S (NP-40 vs SDS abundance) (log2 ratio); higher = more soluble; settings: cell cycle stage: G1/S
HeLa Kyoto [3] = experiment: solubility change mitosis vs G1/S (difference of NP-40 vs SDS log2 ratios) (log2 ratio difference); higher = more soluble in mitosis
HeLa Kyoto [4] = experiment: melting temperature (median over replicates), in situ; higher = more thermally stable
[5] = cell cycle stage: early G1 (4.5 h after nocodazole release)
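For melting temperature (median over replicates), in situ in this document: HeLa Kyoto cells synchronized by double thymidine or nocodazole block, proteins quantified by TMT10plex mass spectrometry, three independent biological replicates.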
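For solubility change mitosis vs G1/S (difference of NP-40 vs SDS log2 ratios) in this document: synchronized HeLa Kyoto cells (double thymidine block for G1/S, nocodazole release for mitosis), protein amounts in NP-40 versus SDS lysates quantified by mass spectrometry, three biological replicates.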
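For solubility in G1/S (NP-40 vs SDS abundance) in this document: HeLa Kyoto cells arrested at G1/S by double thymidine block, proteins quantified by TMT10plex mass spectrometry in mild NP-40 versus SDS extracts, three biological replicates.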
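For thermal stability score vs G1/S (z-score of summed log2 fold changes over temperatures) in this document: synchronized HeLa Kyoto cells, proteins quantified by TMT10plex mass spectrometry, three biological replicates, mitosis taken 0.5 h after nocodazole release, G1/S directly after double thymidine block.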

MDTDLYDEFGNYIGPELDSDEDDDELGRETKDLDEMDDDDDDDDVGDHDDDHPGMEVVLHEDKKYYPTAEEVYGPEVETIVQEEDTQPLTEPIIKPVKTKKFTLMEQTLPVTVYEMDFLADLMDNSELIRNVTLCGHLHHGKTCFVDCLIEQTHPEIRKRYDQDLCYTDILFTEQERGVGIKSTPVTVVLPDTKGKSYLFNIMDTPGHVNFSDEVTAGLRISDGVVLFIDAAEGVMLNTERLIKHAVQERLAVTVCINKIDRLILELKLPPTDAYYKLRHIVDEVNGLISMYSTDENLILSPLLGNVCFSSSQYSICFTLGSFAKIYADTFGDINYQEFAKRLWGDIYFNPKTRKFTKKAPTSSSQRSFVEFILEPLYKILAQVVGDVDTSLPRTLDELGIHLTKEELKLNIRPLLRLVCKKFFGEFTGFVDMCVQHIPSPKVGAKPKIEHTYTGGVDSDLGEAMSDCDPDGPLMCHTTKMYSTDDGVQFHAFGRVLSGTIHAGQPVKVLGENYTLEDEEDSQICTVGRLWISVARYHIEVNRVPAGNWVLIEGVDQPIVKTATITEPRGNEEAQIFRPLKFNTTSVIKIAVEPVNPSELPKMLDGLRKVNKSYPSLTTKVEESGEHVILGTGELYLDCVMHDLRKMYSEIDIKVADPVVTFCETVVETSSLKCFAETPNKKNKITMIAEPLEKGLAEDIENEVVQITWNRKKLGEFFQTKYDWDLLAARSIWAFGPDATGPNILVDDTLPSEVDKALLGSVKDSIVQGFQWGTREGPLCDELIRNVKFKILDAVVAQEPLHRGGGQIIPTARRVVYSAFLMATPRLMEPYYFVEVQAPADCVSAVYTVLARRRGHVTQDAPIPGSPLYTIKAFIPAIDSFGFETDLRTHTQGQAFSLSVFHHWQIVPGDPLDKSIVIRPLEPQPAPHLAREFMIKTRRRKGLSEDVSISKFFDDPMLLELAKQDVVLNYPM [EFTUD2]
thermal stability score (HeLa Kyoto [1]; [5]): -1.97
thermal stability score (HeLa Kyoto [1]; cell cycle stage: mitosis): -2.33
solubility in G1/S (log2) (HeLa Kyoto [2]): -0.443
solubility change mitosis (log2) (HeLa Kyoto [3]): 0.215
melting temperature (HeLa Kyoto [4]; cell cycle stage: G1/S): 57.4 °C
melting temperature (HeLa Kyoto [4]; cell cycle stage: mitosis): 56.2 °C

MICTFLRAVQYTEKLHRSSAKRLLLPYIVLNKACLKTEPSLRCGLQYQKKTLRPRCILGVTQKTIWTQGPSPRKAKEDGSKQVSVHRSQRGGTAVPTSQKVKEAGRDFTYLIVVLFGISITGGLFYTIFKELFSSSSPSKIYGRALEKCRSHPEVIGVFGESVKGYGEVTRRGRRQHVRFTEYVKDGLKHTCVKFYIEGSEPGKQGTVYAQVKENPGSGEYDFRYIFVEIESYPRRTIIIEDNRSQDD [TIMM21]
thermal stability score (HeLa Kyoto [1]; [5]): 0.315
thermal stability score (HeLa Kyoto [1]; cell cycle stage: mitosis): -0.0739
solubility in G1/S (log2) (HeLa Kyoto [2]): -0.209
solubility change mitosis (log2) (HeLa Kyoto [3]): 0.0282
melting temperature (HeLa Kyoto [4]; cell cycle stage: G1/S): 52.1 °C
melting temperature (HeLa Kyoto [4]; cell cycle stage: mitosis): 51.6 °C

MDN1
thermal stability score (HeLa Kyoto [1]; [5]): 0.349
thermal stability score (HeLa Kyoto [1]; cell cycle stage: mitosis): 1.35
solubility in G1/S (log2) (HeLa Kyoto [2]): -0.665
solubility change mitosis (log2) (HeLa Kyoto [3]): 0.182
melting temperature (HeLa Kyoto [4]; cell cycle stage: G1/S): 51.1 °C
melting temperature (HeLa Kyoto [4]; cell cycle stage: mitosis): 50.5 °C

MVIRVYIASSSGSTAIKKKQQDVLGFLEANKIGFEEKDIAANEENRKWMRENVPENSRPATGYPLPPQIFNESQYRGDYDAFFEARENNAVYAFLGLTAPPGSKEAEVQAKQQA [SH3BGRL]
thermal stability score (HeLa Kyoto [1]; [5]): -0.605
thermal stability score (HeLa Kyoto [1]; cell cycle stage: mitosis): -2.76
solubility in G1/S (log2) (HeLa Kyoto [2]): 0.375
solubility change mitosis (log2) (HeLa Kyoto [3]): -0.0943
melting temperature (HeLa Kyoto [4]; cell cycle stage: G1/S): 53.2 °C
melting temperature (HeLa Kyoto [4]; cell cycle stage: mitosis): 53 °C

MDFTAQPKPATALCGVVSADGKIAYPPGVKEITDKITTDEMIKRLKMVVKTFMDMDQDSEDEKQQYLPLALHLASEFFLRNPNKDVRLLVACCLADIFRIYAPEAPYTSHDKLKDIFLFITRQLKGLEDTKSPQFNRYFYLLENLAWVKSYNICFELEDCNEIFIQLFRTLFSVINNSHNKKVQMHMLDLMSSIIMEGDGVTQELLDSILINLIPAHKNLNKQSFDLAKVLLKRTVQTIEACIANFFNQVLVLGRSSVSDLSEHVFDLIQELFAIDPHLLLSVMPQLEFKLKSNDGEERLAVVRLLAKLFGSKDSDLATQNRPLWQCFLGRFNDIHVPVRLESVKFASHCLMNHPDLAKDLTEYLKVRSHDPEEAIRHDVIVTIITAAKRDLALVNDQLLGFVRERTLDKRWRVRKEAMMGLAQLYKKYCLHGEAGKEAAEKVSWIKDKLLHIYYQNSIDDKLLVEKIFAQYLVPHNLETEERMKCLYYLYASLDPNAVKALNEMWKCQNMLRSHVRELLDLHKQPTSEANCSAMFGKLMTIAKNLPDPGKAQDFVKKFNQVLGDDEKLRSQLELLISPTCSCKQADICVREIARKLANPKQPTNPFLEMVKFLLERIAPVHIDSEAISALVKLMNKSIEGTADDEEEGVSPDTAIRSGLELLKVLSFTHPTSFHSAETYESLLQCLRMEDDKVAEAAIQIFRNTGHKIETDLPQIRSTLIPILHQKAKRGTPHQAKQAVHCIHAIFTNKEVQLAQIFEPLSRSLNADVPEQLITPLVSLGHISMLAPDQFASPMKSVVANFIVKDLLMNDRSTGEKNGKLWSPDEEVSPEVLAKVQAIKLLVRWLLGMKNNQSKSANSTLRLLSAMLVSEGDLTEQKRISKSDMSRLRLAAGSAIMKLAQEPCYHEIITPEQFQLCALVINDECYQVRQIFAQKLHKALVKLLLPLEYMAIFALCAKDPVKERRAHARQCLLKNISIRREYIKQNPMATEKLLSLLPEYVVPYMIHLLAHDPDFTRSQDVDQLRDIKECLWFMLEVLMTKNENNSHAFMKKMAENIKLTRDAQSPDESKTNEKLYTVCDVALCVINSKSALCNADSPKDPVLPMKFFTQPEKDFCNDKSYISEETRVLLLTGKPKPAGVLGAVNKPLSATGRKPYVRSTGTETGSNINVNSELNPSTGNRSREQSSEAAETGVSENEENPVRIISVTPVKNIDPVKNKEINSDQATQGNISSDRGKKRTVTAAGAENIQQKTDEKVDESGPPAPSKPRRGRRPKSESQGNATKNDDLNKPINKGRKRAAVGQESPGGLEAGNAKAPKLQDLAKKAAPAERQIDLQR [PDS5A]
thermal stability score (HeLa Kyoto [1]; [5]): 5.43
thermal stability score (HeLa Kyoto [1]; cell cycle stage: mitosis): 11.2
solubility in G1/S (log2) (HeLa Kyoto [2]): -0.0007
solubility change mitosis (log2) (HeLa Kyoto [3]): -0.126
melting temperature (HeLa Kyoto [4]; cell cycle stage: G1/S): 47.2 °C
melting temperature (HeLa Kyoto [4]; cell cycle stage: mitosis): 48.7 °C

MASNMDREMILADFQACTGIENIDEAITLLEQNNWDLVAAINGVIPQENGILQSEYGGETIPGPAFNPASHPASAPTSSSSSAFRPVMPSRQIVERQPRMLDFRVEYRDRNVDVVLEDTCTVGEIKQILENELQIPVSKMLLKGWKTGDVEDSTVLKSLHLPKNNSLYVLTPDLPPPSSSSHAGALQESLNQNFMLIITHREVQREYNLNFSGSSTIQEVKRNVYDLTSIPVRHQLWEGWPTSATDDSMCLAESGLSYPCHRLTVGRRSSPAQTREQSEEQITDVHMVSDSDGDDFEDATEFGVDDGEVFGMASSALRKSPMMPENAENEGDALLQFTAEFSSRYGDCHPVFFIGSLEAAFQEAFYVKARDRKLLAIYLHHDESVLTNVFCSQMLCAESIVSYLSQNFITWAWDLTKDSNRARFLTMCNRHFGSVVAQTIRTQKTDQFPLFLIIMGKRSSNEVLNVIQGNTTVDELMMRLMAAMEIFTAQQQEDIKDEDEREARENVKREQDEAYRLSLEADRAKREAHEREMAEQFRLEQIRKEQEEEREAIRLSLEQALPPEPKEENAEPVSKLRIRTPSGEFLERRFLASNKLQIVFDFVASKGFPWDEYKLLSTFPRRDVTQLDPNKSLLEVKLFPQETLFLEAKE [FAF1]
thermal stability score (HeLa Kyoto [1]; [5]): 0.291
thermal stability score (HeLa Kyoto [1]; cell cycle stage: mitosis): 1.77
solubility in G1/S (log2) (HeLa Kyoto [2]): 0.0926
solubility change mitosis (log2) (HeLa Kyoto [3]): -0.147
melting temperature (HeLa Kyoto [4]; cell cycle stage: G1/S): 53.6 °C
melting temperature (HeLa Kyoto [4]; cell cycle stage: mitosis): 53.5 °C

MSELEQLRQEAEQLRNQIRDARKACGDSTLTQITAGLDPVGRIQMRTRRTLRGHLAKIYAMHWGTDSRLLVSASQDGKLIIWDSYTTNKVHAIPLRSSWVMTCAYAPSGNFVACGGLDNICSIYSLKTREGNVRVSRELPGHTGYLSCCRFLDDNQIITSSGDTTCALWDIETGQQTVGFAGHSGDVMSLSLAPDGRTFVSGACDASIKLWDVRDSMCRQTFIGHESDINAVAFFPNGYAFTTGSDDATCRLFDLRADQELLMYSHDNIICGITSVAFSRSGRLLLAGYDDFNCNIWDAMKGDRAGVLAGHDNRVSCLGVTDDGMAVATGSWDSFLKIWN [GNB2]
thermal stability score (HeLa Kyoto [1]; [5]): -0.768
thermal stability score (HeLa Kyoto [1]; cell cycle stage: mitosis): -0.878
solubility in G1/S (log2) (HeLa Kyoto [2]): -0.771
solubility change mitosis (log2) (HeLa Kyoto [3]): -0.136
melting temperature (HeLa Kyoto [4]; cell cycle stage: G1/S): 55.6 °C
melting temperature (HeLa Kyoto [4]; cell cycle stage: mitosis): 55.5 °C
